Results taken from publication doi:10.1101/2020.11.22.393603 (bioRxiv, 2020).

Columns and labels:
[1] = biological target: T1, full-length recombinant GLK1 (Arabidopsis thaliana, UniProt Q9SIV3 1-420); assay: SEC
T1 sequence (looked up): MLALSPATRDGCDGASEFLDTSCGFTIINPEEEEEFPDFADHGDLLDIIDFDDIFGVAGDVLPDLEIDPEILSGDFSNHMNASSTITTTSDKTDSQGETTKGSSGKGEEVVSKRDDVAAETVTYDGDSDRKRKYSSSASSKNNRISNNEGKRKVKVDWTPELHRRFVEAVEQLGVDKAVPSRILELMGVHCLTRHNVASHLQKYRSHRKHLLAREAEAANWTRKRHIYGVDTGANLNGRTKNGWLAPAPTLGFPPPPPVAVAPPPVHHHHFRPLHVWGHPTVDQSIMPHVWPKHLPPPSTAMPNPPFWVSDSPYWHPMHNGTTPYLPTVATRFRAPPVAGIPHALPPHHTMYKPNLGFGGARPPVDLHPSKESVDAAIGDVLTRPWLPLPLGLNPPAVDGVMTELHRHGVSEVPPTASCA

[2] = biological target: T2, full-length recombinant GLK2 (Arabidopsis thaliana, UniProt Q9FFH0 1-386); assay: SEC
T2 sequence (looked up): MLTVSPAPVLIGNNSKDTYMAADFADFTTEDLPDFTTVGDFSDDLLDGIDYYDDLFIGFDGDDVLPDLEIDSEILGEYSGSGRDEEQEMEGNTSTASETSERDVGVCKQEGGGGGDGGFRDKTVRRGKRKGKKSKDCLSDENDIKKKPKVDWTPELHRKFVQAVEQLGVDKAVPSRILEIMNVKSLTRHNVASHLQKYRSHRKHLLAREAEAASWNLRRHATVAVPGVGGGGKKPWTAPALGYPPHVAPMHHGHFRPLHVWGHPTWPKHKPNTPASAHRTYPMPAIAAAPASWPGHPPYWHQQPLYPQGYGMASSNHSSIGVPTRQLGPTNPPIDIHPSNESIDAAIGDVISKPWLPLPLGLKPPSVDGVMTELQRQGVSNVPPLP

binding result [1]: binds
binding result [2]: binds
B1: full-length recombinant LSD1 (natural protein, Arabidopsis thaliana, UniProt P94077 1-189, looked up)
chain: MKVADMQDQLVCHGCRNLLMYPRGASNVRCALCNTINMVPPPPPPHDMAHIICGGCRTMLMYTRGASSVRCSCCQTTNLVPAHSNQVAHAPSSQVAQINCGHCRTTLMYPYGASSVKCAVCQFVTNVNMSNGRVPLPTNRPNGTACPPSTSTSTPPSQTQTVVVENPMSVDESGKLVSNVVVGVTTDKK
